FireProtDB (doi:10.1002/pro.5560040106)

Details: Bacillus subtilis (strain 168), pH 7, Urea, CD, Potassium phosphate 10 mM, reversible: yes, whole UniProt chain shown

B1: Phosphocarrier protein HPr wild type, P08877 (protein)
chain: MAQKTFKVTADSGIHARPATVLVQTASKYDADVNLEYNGKTVNLKSIMGVMSLGIAKGAEITISASGADENDALNALEETMKSEGLGE
denaturant m value (10 °C): 1.04 kcal/mol/M | denaturant midpoint (higher = more stable) (10 °C): 3.32 M | unfolding free energy (10 °C): 3.45 kcal/mol | denaturant m value (15 °C): 1.06 kcal/mol/M | denaturant midpoint (higher = more stable) (15 °C): 3.52 M | unfolding free energy (15 °C): 3.73 kcal/mol | denaturant m value (25 °C): 1.08 kcal/mol/M | denaturant midpoint (higher = more stable) (25 °C): 3.9 M | unfolding free energy (25 °C): 4.21 kcal/mol | denaturant m value (35 °C): 1.05 kcal/mol/M | denaturant midpoint (higher = more stable) (35 °C): 3.77 M | unfolding free energy (35 °C): 3.96 kcal/mol | denaturant m value (40 °C): 1.04 kcal/mol/M | denaturant midpoint (higher = more stable) (40 °C): 3.64 M | unfolding free energy (40 °C): 3.79 kcal/mol
